From patent US20200054763A1 (DEBIOPHARM INTERNATIONAL S A, published 2020)

Molecular target: T1, human CD37 (human, UniProt P11049 1-281)
T1 sequence: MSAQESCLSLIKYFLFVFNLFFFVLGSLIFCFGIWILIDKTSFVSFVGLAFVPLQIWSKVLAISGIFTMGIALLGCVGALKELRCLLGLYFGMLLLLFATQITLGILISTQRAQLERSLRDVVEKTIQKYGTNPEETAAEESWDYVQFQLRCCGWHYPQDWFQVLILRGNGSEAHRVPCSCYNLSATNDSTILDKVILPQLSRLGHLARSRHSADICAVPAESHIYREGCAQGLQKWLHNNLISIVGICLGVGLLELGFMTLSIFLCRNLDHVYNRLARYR
Experiment: cell-based or functional assay

B1: IMGN529 (naratuximab emtansine) (antibody, V domains shown)
VH: QVQVQESGPGLVAPSQTLSITCTVSGFSLTTSGVSWVRQPPGKGLEWLGVIWGDGSTNYHPSLKSRLSIKKDHSKSQVFLKLNSLTAADTATYYCAKGGYSLAHWGQGTLVTVSS
VL: DIQMTQSPSSLSVSVGERVTITCRASENIRSNLAWYQQKPGKSPKLLVNVATNLADGVPSRFSGSGSGTDYSLKINSLQPEDFGTYYCQHYWGTTWTFGQGTKLEIKR
modifications: maytansinoid DM1 linked through the SMCC linker; attachment residues and chain not stated
- median IC50, cell proliferation (MTT assay, 72 hours), B cell lymphoma cell lines (n=46): 450 pM
- median IC50, cell proliferation (MTT assay, 72 hours), T cell lymphoma cell lines (n=8): 22.5 nM
- median IC50, cell proliferation (MTT assay, 72 hours), fifty-four lymphoma cell lines: 790 pM
